In PMC6384913, “Exploring the suitability of RanBP2-type Zinc Fingers for RNA-binding protein design”:

Key:
(hRBM10-ZF)x2 = target: T1, (hRBM10-ZF)x2 (Homo sapiens, UniProt P98175 212-243); experiment: BLI; ITC: 50 mM Tris pH 7.5, 150 mM NaCl, 1 mM DTT, 0.1 mM ZnCl2, 25 °C; BLI: 50 mM Tris pH 7.5, 150 mM NaCl, 1 mM DTT, 0.1% BSA, 0.02% Tween, 30 °C; details: protein: recombinant; tags: GST cleaved (HRV-3C); label: 5' biotin
T1 chain: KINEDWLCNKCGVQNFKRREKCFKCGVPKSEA

(EWS-ZF)x2 [1] = target: T2, (EWS-ZF)x2 (Homo sapiens, UniProt Q01844-5 523-555); experiment: as above; details: protein: recombinant; tags: GST cleaved (HRV-3C); label: 5' biotin
(FUS-ZF)x2 [2] = target: T3, (FUS-ZF)x2 (Xenopus laevis, UniProt Q7ZXQ2 435-467); experiment: as above; details: protein: recombinant; tags: GST cleaved (HRV-3C); label: 5' biotin
T3 chain: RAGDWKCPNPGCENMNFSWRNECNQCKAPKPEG

(ABI3-5Sup-ZF)x2 [3] = target: T4, (ABI3-5Sup-ZF)x2 (Arabidopsis thaliana, UniProt F4JCU0 379-406); experiment: as above; details: protein: recombinant; tags: GST cleaved (HRV-3C); label: 5' biotin
T4 chain: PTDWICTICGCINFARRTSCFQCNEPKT

(EWS-ZF)x2 [4] = target: T2, (EWS-ZF)x2; experiment: ITC; ITC: 50 mM Tris pH 7.5, 150 mM NaCl, 1 mM DTT, 0.1 mM ZnCl2, 25 °C; BLI: 50 mM Tris pH 7.5, 150 mM NaCl, 1 mM DTT, 0.1% BSA, 0.02% Tween, 30 °C; details: protein: recombinant; tags: GST cleaved (HRV-3C)
(FUS-ZF)x2 [5] = target: T3, (FUS-ZF)x2; experiment: as above; details: protein: recombinant; tags: GST cleaved (HRV-3C)
(ABI3-5Sup-ZF)x2 [6] = target: T4, (ABI3-5Sup-ZF)x2; experiment: as above; details: protein: recombinant; tags: GST cleaved (HRV-3C)
(ZRANB1-B-ZF)x2 = target: T5, (ZRANB1-B-ZF)x2 (Danio rerio, UniProt A0JMQ9 152-182); experiment: as above; details: protein: recombinant; tags: GST cleaved (HRV-3C)
T5 chain: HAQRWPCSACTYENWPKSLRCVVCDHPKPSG

(mRBM10-ZF N4D)x2 = target: T6, (mRBM10-ZF N4D)x2 (Mus musculus, UniProt Q99KG3-2 135-166+=GSGSG+135-166, V161M;internal_change); experiment: BLI; ITC: 50 mM Tris pH 7.5, 150 mM NaCl, 1 mM DTT, 0.1 mM ZnCl2, 25 °C; BLI: 50 mM Tris pH 7.5, 150 mM NaCl, 1 mM DTT, 0.1% BSA, 0.02% Tween, 30 °C; details: protein: recombinant; tags: GST cleaved (HRV-3C); label: 5' biotin
T6 sequence: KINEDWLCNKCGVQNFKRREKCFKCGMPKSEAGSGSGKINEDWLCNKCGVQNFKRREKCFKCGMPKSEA

T2 sequence (Q01844 518-550): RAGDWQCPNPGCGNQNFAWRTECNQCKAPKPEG

Binder: AAAGGAGGAAAA (ssRNA) [(GGA)x2 biotin]
- Kd ((hRBM10-ZF)x2): 1400 ± 10 nM
- binding result ((EWS-ZF)x2 [1]): no binding
- binding result ((FUS-ZF)x2 [2]): no binding
- Kd ((ABI3-5Sup-ZF)x2 [3]): 2600 ± 1000 nM

Binder: AAAGGCGGCAAA (ssRNA) [(GGC)x2 biotin]
- Kd ((hRBM10-ZF)x2): 2600 ± 30 nM
- binding result ((EWS-ZF)x2 [1]): no binding
- binding result ((FUS-ZF)x2 [2]): no binding

Binder: AAAGAUGAUAAA (ssRNA) [(GAU)x2 biotin]
- binding result ((hRBM10-ZF)x2): no binding
- binding result ((EWS-ZF)x2 [1]): no binding
- binding result ((FUS-ZF)x2 [2]): no binding
- binding result ((ABI3-5Sup-ZF)x2 [3]): no binding

Binder: AAAAAAAAAAAA (ssRNA) [(AAA)x2 biotin]
- binding result ((hRBM10-ZF)x2): no binding
- binding result ((EWS-ZF)x2 [1]): no binding
- binding result ((FUS-ZF)x2 [2]): no binding
- binding result ((ABI3-5Sup-ZF)x2 [3]): no binding

Binder: AAAGGUGGUAAA (ssRNA) [(GGU)x2]
- Kd ((EWS-ZF)x2 [4]): 200 ± 30 nM
- Kd ((FUS-ZF)x2 [5]): 200 ± 20 nM
- Kd ((ABI3-5Sup-ZF)x2 [6]): 700 ± 100 nM
- binding result ((ZRANB1-B-ZF)x2): no binding

Binder: AAAGGGGGGAAA (ssRNA) [(GGG)x2 biotin]
- Kd ((hRBM10-ZF)x2): 300 ± 30 nM
- Kd ((EWS-ZF)x2 [1]): 1100 ± 10 nM
- Kd ((mRBM10-ZF N4D)x2): 400 ± 30 nM
- Kd ((FUS-ZF)x2 [2]): 1100 ± 300 nM
- Kd ((ABI3-5Sup-ZF)x2 [3]): 3000 ± 500 nM

Binder: AAAGGUGGUAAA (ssRNA) [(GGU)x2 biotin]
- Kd ((hRBM10-ZF)x2): 500 ± 10 nM
- Kd ((EWS-ZF)x2 [1]): 800 ± 60 nM
- Kd ((FUS-ZF)x2 [2]): 800 ± 70 nM
- Kd ((ABI3-5Sup-ZF)x2 [3]): 1000 ± 10 nM

Binder: AAAGGAGGAAAA (ssRNA) [(GGA)x2]
- Kd ((ABI3-5Sup-ZF)x2 [6]): 1000 ± 100 nM

Binder: AAAAGUAGUAAA (ssRNA) [(AGU)x2 biotin]
- binding result ((hRBM10-ZF)x2): no binding
- binding result ((EWS-ZF)x2 [1]): no binding
- binding result ((FUS-ZF)x2 [2]): no binding
- binding result ((ABI3-5Sup-ZF)x2 [3]): no binding

Binder: AAAAAAAAAAAA (ssRNA) [polyA control 12-mer]
- binding result ((ZRANB1-B-ZF)x2): no binding
